Laboratory results from article PMC8717395 (JACS Au, 2021).

Assays:
[1] = target: NAD+-dependent formate dehydrogenase from Starkeya novella (Starkeya novella)
[2] = target: the molecule itself
purified protein [3] = substrate: NC(=S)c1ccc[n+]([C@@H]2O[C@H](COP(=O)(O)OP(=O)(O)OC[C@H]3O[C@@H](n4cnc5c(N)ncnc54)[C@H](OP(=O)(O)O)[C@@H]3O)[C@@H](O)[C@H]2O)c1; test: purified protein; conditions: 15.0 mM NADH; buffer B; substrate inhibition term in fit
purified protein [4] = substrate: NC(=O)c1ccc[n+]([C@@H]2O[C@H](COP(=O)([O-])OP(=O)(O)OC[C@H]3O[C@@H](n4cnc5c(N)ncnc54)[C@H](O)[C@@H]3O)[C@@H](O)[C@H]2O)c1; test: purified protein; conditions: 20 mM formate, buffer B, 30 °C
purified protein [5] = substrate: O=CO; test: purified protein; conditions: 2.0 mM NAD+, buffer B, 30 °C

## NAD+-dependent formate dehydrogenase from Starkeya novella (enzyme)
[1]
  stoichiometry N: 2

B1: soluble pyridine nucleotide transhydrogenase SthA from E. coli (enzyme, E. coli K-12, UniProt P27306 1-466, looked up)
chain: MPHSYDYDAIVIGSGPGGEGAAMGLVKQGARVAVIERYQNVGGGCTHWGTIPSKALRHAVSRIIEFNQNPLYSDHSRLLRSSFADILNHADNVINQQTRMRQGFYERNHCEILQGNARFVDEHTLALDCPDGSVETLTAEKFVIACGSRPYHPTDVDFTHPRIYDSDSILSMHHEPRHVLIYGAGVIGCEYASIFRGMDVKVDLINTRDRLLAFLDQEMSDSLSYHFWNSGVVIRHNEEYEKIEGCDDGVIMHLKSGKKLKADCLLYANGRTGNTDSLALQNIGLETDSRGQLKVNSMYQTAQPHVYAVGDVIGYPSLASAAYDQGRIAAQALVKGEATAHLIEDIPTGIYTIPEISSVGKTEQQLTAMKVPYEVGRAQFKHLARAQIVGMNVGTLKILFHRETKEILGIHCFGERAAEIIHIGQAIMEQKGGGNTIEYFVNTTFNYPTMAEAYRVAALNGLNRLF
[2]
  stoichiometry N: 8

B2: SthA (Escherichia coli K-12) (protein)
chain: PHSYDYDAIVIGSGPGGEGAAMGLVKQGARVAVIERYQNVGGGCTHWGTIPSKALRHAVSRIIEFNQNPLYSDHSRLLRSSFADILNHADNVINQQTRMRQGFYERNHCEILQGNARFVDEHTLALDCPDGSVETLTAEKFVIACGSRPYHPTDVDFTHPRIYDSDSILSMHHEPRHVLIYGAGVIGCEYASIFRGMDVKVDLINTRDRLLAFLDQEMSDSLSYHFWNSGVVIRHNEEYEKIEGCDDGVIMHLKSGKKLKADCLLYANGRTGNTDSLALQNIGLETDSRGQLKVNSMYQTAQPHVYAVGDVIGYPSLASAAYDQGRIAAQALVKGEATAHLIEDIPTGIYTIPEISSVGKTEQQLTAMKVPYEVGRAQFKHLARAQIVGMNVGTLKILFHRETKEILGIHCFGERAAEIIHIGQAIMEQKGGGNTIEYFVNTTFNYPTMAEAYRVAALNGLNRLF
Purified protein [3]
  Km: 30 µM
  kcat: 19.9 s⁻¹

B3: Fdh (Ancylobacter novellus DSM 506) (protein)
chain: MAKILCVLYDDPVDGYPKTYARDDLPKIDHYPGGQTLPTPKAIDFTPGALLGSVSGELGLRKYLEANGHTFVVTSDKDGPDSVFERELVDADVVISQPFWPAYLTPERIAKAKNLKLALTAGIGSDHVDLQSAIDRGITVAEVTYCNSISVAEHVVMMILGLVRNYIPSHDWARKGGWNIADCVEHSYDLEGMTVGSVAAGRIGLAVLRRLAPFDVKLHYTDRHRLPEAVEKELGLVWHDTREDMYPHCDVVTLNVPLHPETEHMINDETLKLFKRGAYIVNTARGKLADRDAIVRAIESGQLAGYAGDVWFPQPAPKDHPWRTMKWEGMTPHISGTSLSAQARYAAGTREILECFFEGRPIRDEYLIVQGGALAGTGAHSYSKGNATGGSEEAAKFKKAG
Purified protein [4]
  Km: 110 µM
  kcat: 1.08 s⁻¹
Purified protein [5]
  Km: 2150 µM
  kcat: 0.87 s⁻¹
